# Experimental data taken from US20210380978.
# System: HNRNPH1 isoform A (Homo sapiens)
# Experiment: MST
# Details: 50 mM Tris pH 8.0, 300 mM KCl, 0.02% NP-40, 10% glycerol, 0.5 mg/ml heparin, 22 C; 20 nM RNA
substance,measurement,value
INCA1 major eCLIP peak 50-nt RNA oligo,Kd,762 nM
